Holding throughout (experiment): IEDB peptide-MHC binding, purified MHC/competitive/radioactivity; ≥ and ≤ were set here for values at or beyond the usual limits of such assays
Common to all, as to conditions: source organism: Bordetella pertussis

Test [1] concerns the target HLA-A*02:01.
Test [2] has as its target HLA-B*35:01.
For test [3], the target named is HLA-B*57:01.
Test [4] deals with HLA-B*07:02.
The target in test [5] is HLA-B*44:03.

pIC50: −log10 of the molar value. Where only a bound is given, the exact number is not on record here.

In the case of ALAAIASAA, the negative-log IC50 (pIC50) in test [1] is 4.91.
Consider DATLVGAKF, for which, in test [2], the negative logarithm of the IC50 (pIC50) is 4.22.
With HFIGYIYEV, in test [1], the negative logarithm of the IC50 (pIC50) is 7.79.
For HVSKEEQYY, the negative logarithm of the IC50 (pIC50) is 4.16 in test [2] and at most 4.15 in test [3].
Take KPDRAARVA: the negative logarithm of the IC50 (pIC50) in test [4] was 6.34.
For LLGSHVARA, in test [1], the pIC50 was 5.63.
With QAIVVGKDL, the negative logarithm of the IC50 (pIC50) in test [5] is 4.50.
For the sequence RTRGQARSG, the pIC50 in test [3] was 4.93.
For RVRALAWLL, the pIC50 is 6.38 in test [4] and 6.15 in test [3].
As to VEDIGGKNY, the pIC50 in test [5] is 4.79.
Turning to YENKSSTPL, the negative-log IC50 (pIC50) in test [5] was 4.43.
On the same count and under the same terms, with YIWGLYQTY the figure was 6.33.

Values taken from the Immune Epitope Database (IEDB).
